Consider 14 molecules from patent US20260250410A1 (SICHUAN HUIYU PHARMACEUTICAL, published 2026).

Sequences and labels used below:
B1: SB7 (antibody, V domains shown)
VH: QVQLQQSGPELVSPGESVKISCKGSGYTFTDYAVHWVKQSHSKSLEWIGVKSVYYGITKYSQNFKDKATMTVDKSSSTAYMELARLTSEDSAIYYCARDSYGSSRGYFDYWGQGTTLTVSS
VL: DIKMTQSPSSIYVSPGERVTITCKASQDINSFLSWFQQKPGKSPKTLIYRANRLVDGVPSRFSGSGSGQDYSLTISSLEYEDMGIYYCLQYDEFPRTFGGGTKLEIK
notes: single B cell antibody, expressed in CHO
B2: SB1 (antibody, V domains shown)
VH: QVQLQQSGPDLVRPGESVKISCKGSGYTFTDHAIHWVRQSHAKSLEWIGVISFSYDNTKYNQNFKGKATMTVDKSSNTAYMELARLTSEDSAIYYCARDCYGSNRGYFDYWGQGTTLTVSS
VL: DIRMTQSPSSMYASLGERVTITCKASQDINRFLSWFLQRPGKAPKTLIYRANNLVEGVPSRFSGSGSGQDYSLIISNLEYEDMGIYYCLQYDEFPRTFGGGTKLEIK
notes: as for B1
B3: SB2 (antibody, V domains shown)
VH: DVKLVESGGGLVKPGGSLKLSCAASGFTFSSYTMSWVRQTPEKRLEWVATISSGGIYTYYPDSVKGRFTISRDNAKDTLYLQMNSLRSEDTAVYYCSSPHSYAISYGYFDYWGQGTTLTVSS
VL: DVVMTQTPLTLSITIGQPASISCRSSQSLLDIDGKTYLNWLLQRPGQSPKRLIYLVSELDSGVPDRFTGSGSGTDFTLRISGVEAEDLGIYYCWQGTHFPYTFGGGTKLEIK
notes: as for B1
B4: SB3 (antibody, V domains shown)
VH: B3 VH with K13E, T28P, N84S
VL: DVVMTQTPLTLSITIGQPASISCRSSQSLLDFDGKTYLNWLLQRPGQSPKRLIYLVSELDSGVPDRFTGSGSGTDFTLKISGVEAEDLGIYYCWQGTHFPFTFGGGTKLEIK
notes: as for B1
B5: SB6 (antibody, V domains shown)
VH: QGQMQQSGAELVKPGASVKLSCKTSGFTFNSSYITWLKQKPGQSLEWIAWIFAGTGGTYYNEKFTDKAQLTVDTTSSTAYMQFSSLTTEDSAIYYCARHGLGYDYWGQGTTLTVSS
VL: SIVMTQTPKFLLVSAGDRVTITCKASQSVNTDVAWYQQKSGQSPKLLIYSASNRYTGVPDRFTGSGYGTDFTFTISTVQAEDLAVYFCQQDHSSPPWTFGGGTKLEIK
notes: as for B1
B6: SB4 (antibody, V domains shown)
VH: QVQLQQSGAELVRPGTSVKISCKASGYTFTNYWLGWVKQRPGHGLEWIGDNYPGDNYRNFNEKFKGKATLTTDASSSTAYLQLSSLISEDSAVYFCTRSGGSRYYTMDYWGQGTSVTVSS
VL: DIVMTQAAFSNPVTLGTSASISCRSSRSLLHNNGITYLYWYLQKPGQSPQLLIYQMSNLASGVPDRFHSSGSGTDFTLSISRVEAEDVGVYYCAQNLDLPYTFGGGTKLEIK
notes: as for B1
B7: G10F6-MMAE (antibody, V domains shown)
VH: EVKLVESGPGILQPSQTLSLTCSFSGFSLSTSGMGVSWVRQPSGKGLEWLAHIYWDDDKRYNPSLKGRLTISKDTPRNQVFLEITSVDTTDTATYYCARVPGNWDEDAMDYWGQGTTVTVSS
VL: DIQMTQSPLSLPVSLGDQASISCRSSQNIVHTNGNTYLEWYLQKVGQSPKLLIYKVSNRFSGVPDRFSGSGSGTDFTLKISRVEAEDLGVYYCFQGSHVPYTFGGGTKLEIK
modifications: vc-MMAE coupled after reduction, sites not stated; DAR 3.6
B8: 1CP-125-MMAE (antibody, human IgG1, kappa, V domains shown)
VH: QVQLVQSGAEVKKPGASVKVSCKASGYNFISYWLHWVRQAPGQGLEWMGGIYPGNTDTTYNQKFKGRVTMTADTSTSTVYMELSSLRSEDTAVYYCIRYDYDRGMDYWGQGTLVTVSS
VL: DIQMTQSPSSLSASVGDRVTITCRASEDIYYRLAWYQQKPGKAPKLLISGATALETGVPSRFSGSGSGKDYTFTISSLQPEDIATYYCQHYWNIPWTFGQGTKVEIKR
modifications: vc-MMAE coupled after reduction, sites not stated; DAR 4.3
B9: 1CP-117-MMAE (antibody, human IgG1, kappa, V domains shown)
VH: QVQLVQSGSELKKPGASVKVSCKASGYTLTDFSMHWVRQAPGQGLEWMGWINTETGAPTYADDFKGRFVLSLDTSVSTAYLQISSLKAEDTAVYYCSRGRDYDPHFDYWGQGTLVTVSS
VL: EIVLTQSPATLSLSPGERATLSCRASQSISDFLHWYQQKPGQSPRLLIKYASQSISGIPARFSGSGSGSDFTLTISSVEPEDFAVYYCQSAHSFPYTFGQGTKLEIKR
modifications: vc-MMAE coupled after reduction, sites not stated; DAR 4.8
B10: 1CP-152-MMAE (antibody, human IgG1, kappa, V domains shown)
VH: EVQLVESGGGLVQPGRSLRLSCTTSGLTFTHYHMSWVRQAPGKGLEWVAIIRNKAYGYTTDYSASVRGRFTISRDDSKSILYLQMNSLKTEDTAVYYCVREGGYGYDGTFAYWGQGTLVTVSS
VL: DIQMTQSPSSLSASVGDRVTITCRASESVDNYGISFMNWFQQKPGQAPKLLIYAASNQGSGVPSRFSGSGSGTDFTLTISSMQPEDFATYYCQQSKEVPRTFGGGTKVEIKR
modifications: vc-MMAE coupled after reduction, sites not stated; DAR 4.5
B11: 1CP-064 (antibody, V domains shown)
VH: EVKLVESGPGILQPSQTLSLTCSFSGFSLSTSGMGVGWIRQPSGKGLEWLAHIWWDDVKRYNPALKSRLTISKDTSSSQVFLKIASVDTADTATYYCARMGGKVPWFAYWGQGTTVTVSS
VL: DVVMTQTPASLAVSLGQRATISCRASESVDSYGNSFMHWYQQKPGQPPKLLIYLASNLESGVPARFSGSGSRTDFTLTIDPVEADDAATYYCQQNNEDPWTFGGGTKLEIK
notes: murine hybridoma mAb
B12: 1CP-062 (antibody, V domains shown)
VH: EVKLVESGPGLVAPSQSLSITCTVSGFSLTTYGVHWVRQPPGKGLEWLVVIWSDGNTTYNSALKSRLSINKDNSKSQVFLKMNSLQTDDTAMYYCAKNYRNYDYAMDYWGQGTTVTVSS
VL: B11 VL with V2I, L54R, V62I, D80N, A87V, N95S, W100Y
notes: murine hybridoma mAb
B13: 1CP-063 (antibody, V domains shown)
VH: EVNLKESGPELVKPGASVRISCKASGYTFTSYYIHWVKQRPGQGLEWIGWIYPGNVNSKYNEKFKGKVTLTADKSSITAYMQLSSLTSEDSAVYFCAREDYGHYYAMDYWGQGTTVTVSS
VL: DIVMTQSPSSMYASLGERVTITCKASQDIKSYLSWYQQKPWKSPKTLIYYATSLADGVPSRFSGSGSGQDYSLTISSLESDDTATYYCLQYGESPWTFGGGTKLEIK
notes: murine hybridoma mAb
B14: 1CP-065 (antibody, V domains shown)
VH: EVTLKESGAELVRPGALVKLSCKASGFNIKDYYMHWVKQRPEQGLEWIGWIDPENDNTIYDPKFQGKASITADTSSNTAYLQLSSLTSEDTAVYYCARFYGSYYYAMDYWGQGTTVTVSS
VL: DIVMTQSPKFMSTSVGDRVSITCKASQDVSTAVTWYQQKPGQSPKLLIYWASTRHTGVPDRFTGSGSGTDYTLTISSVQAEDLALYYCQQHYSTPYTFGGGTKLEIK
notes: murine hybridoma mAb

Where a chain is given by its changes, count along the chain named.

One test has as its target T1, HuCDCP1-C (human, UniProt Q9H5V8 30-667).
T1 construct: range 30-667; expressed in HEK-293T, purified by Fc/his tag; also called human CDCP1-C; full-length extracellular domain of human CDCP1; not shown: Fc or his tag
T1 sequence (looked up): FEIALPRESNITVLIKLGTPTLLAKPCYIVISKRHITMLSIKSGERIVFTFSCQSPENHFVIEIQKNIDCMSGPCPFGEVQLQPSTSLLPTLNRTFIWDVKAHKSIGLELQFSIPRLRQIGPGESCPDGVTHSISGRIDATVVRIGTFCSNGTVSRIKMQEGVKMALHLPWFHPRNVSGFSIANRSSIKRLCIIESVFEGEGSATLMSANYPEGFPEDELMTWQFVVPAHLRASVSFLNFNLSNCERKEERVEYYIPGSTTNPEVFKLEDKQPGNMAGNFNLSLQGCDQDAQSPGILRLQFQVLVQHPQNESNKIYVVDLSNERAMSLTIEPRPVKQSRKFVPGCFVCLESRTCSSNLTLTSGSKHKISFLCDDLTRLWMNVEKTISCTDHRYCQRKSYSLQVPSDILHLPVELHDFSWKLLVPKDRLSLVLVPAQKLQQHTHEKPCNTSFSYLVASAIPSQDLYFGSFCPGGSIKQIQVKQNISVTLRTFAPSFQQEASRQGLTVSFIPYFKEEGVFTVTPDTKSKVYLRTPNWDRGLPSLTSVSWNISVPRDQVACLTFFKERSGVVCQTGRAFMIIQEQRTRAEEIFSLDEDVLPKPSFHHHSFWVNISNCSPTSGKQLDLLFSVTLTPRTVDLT
The test is described as follows: ELISA, coated antigen. Here is the method:
(§1) The candidate antibodies obtained from Example 6 were subjected to gene cloning, constructed into an expression vector for a small amount of expression in CHO cells, and purified with an Fc affinity column (AT Protein A Diamond Plus. No. AA402312). Antibody purity was analyzed by HPLC and determined by Nanodrop. High-throughput affinity assay was carried out for a small amount of antibodies by Caterra. […] At the same time, 2 μg/ml antigen human CDCP1-C and 2 μg/ml human CDCP1-B were used for coating, and the antigen-antibody binding capacity was tested by ELISA for verification.
For orientation: In an ELISA, binding on a coated surface is turned into a signal by an enzyme label.
In turn, B1 gave an EC50 of 0.034 nM. In other words, the picomolar range. On the same count and under the same terms, the same measure for B2: 0.092 nM. Molecule B3 gave an EC50 of 0.045 nM. On the same count and under the same terms, the same measure for B4: 0.049 nM. Molecule B5 gave an EC50 of 0.027 nM. Molecule B6 came in with an EC50 of 0.071 nM.

A further test deals with T2, human CDCP1 on tumor cells (human, UniProt Q9H5V8 30-836).
T2 sequence (looked up): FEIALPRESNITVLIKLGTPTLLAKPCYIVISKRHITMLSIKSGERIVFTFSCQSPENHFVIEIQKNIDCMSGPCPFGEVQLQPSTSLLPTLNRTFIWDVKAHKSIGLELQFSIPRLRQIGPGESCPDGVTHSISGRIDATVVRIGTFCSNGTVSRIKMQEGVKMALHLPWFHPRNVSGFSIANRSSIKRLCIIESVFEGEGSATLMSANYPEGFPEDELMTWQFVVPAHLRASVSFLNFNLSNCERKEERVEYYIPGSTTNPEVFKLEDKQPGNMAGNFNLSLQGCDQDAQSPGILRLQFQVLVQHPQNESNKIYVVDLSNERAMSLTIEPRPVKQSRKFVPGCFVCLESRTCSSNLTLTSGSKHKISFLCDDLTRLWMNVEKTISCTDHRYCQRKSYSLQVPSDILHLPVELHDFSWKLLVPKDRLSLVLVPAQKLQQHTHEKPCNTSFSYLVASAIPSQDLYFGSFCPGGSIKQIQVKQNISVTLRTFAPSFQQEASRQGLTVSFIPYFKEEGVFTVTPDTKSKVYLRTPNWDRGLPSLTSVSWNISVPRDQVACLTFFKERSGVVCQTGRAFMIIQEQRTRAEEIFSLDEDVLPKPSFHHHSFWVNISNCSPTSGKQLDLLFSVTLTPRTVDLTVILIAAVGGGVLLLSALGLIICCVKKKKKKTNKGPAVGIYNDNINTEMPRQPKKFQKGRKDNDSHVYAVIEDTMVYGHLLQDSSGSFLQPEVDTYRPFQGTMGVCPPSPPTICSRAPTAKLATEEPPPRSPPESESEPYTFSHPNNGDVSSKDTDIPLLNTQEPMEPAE
Put plainly: cell-based or functional assay.
For B7, the “IC50 (nM), killing of HCT116 cells (120 h), CellTiter-Glo” value (from here on “IC50 (nM), killing of HCT116 cells”) is 1.29 nM; the “IC50 (nM), killing of MDA-MB-231 cells (120 h), CellTiter-Glo” value is more than 40 nM; the “IC50 (nM), killing of PC3 cells (96 h), CellTiter-Glo” value came to 0.0106 nM.

The target in the next test is T2, human CDCP1 on tumor cells. Put plainly: cell-based or functional assay. The source holds these as a separate data set.
B8: the “IC50 (nM), killing of HCC1806 cells (120 h), CellTiter-Glo” value was 0.272 nM. As for B9, the “IC50 (nM), killing of HCC1806 cells (120 h), CellTiter-Glo” value turned out to be 0.894 nM. On the same count and under the same terms, with B10 the figure was 0.734 nM.

Another test has as its target T2, human CDCP1 on tumor cells. The test is described as follows: cell-based or functional assay. This is another data set of the same source.
Turning to B8, the “IC50 (nM), killing of HCT116 cells” value stood at 0.668 nM.

As to B9, the “IC50 (nM), killing of HCT116 cells” value turned out to be 1.51 nM.

As for B10, the “IC50 (nM), killing of HCT116 cells” value worked out at 1.27 nM.

A further test addresses T3, huCDCP1-his (human, UniProt Q9H5V8 30-667, limits assumed).
T3 construct: also called human CDCP1 antigen; not shown: his tag
T3 sequence (looked up): T1 sequence (looked up)
The test is described as follows: SPR (Caterra), antigen immobilized. Here is the method:
as §1
With B1, the Kd was found to be 1.74 nM. Still for that read-out and setting: with B2 the figure was 1.61 nM; with B3, 1.44 nM. B4 showed a Kd of 0.201 nM. Still for that read-out and setting: the same measure for B5: 0.722 nM; for B6: 7.66 nM.

The target of the next test is T2, human CDCP1 on tumor cells. Put plainly: laser confocal microscopy, HCC1806 cells, dye-labeled antibody. An excerpt: The lysosomes were labeled with red fluorescence, and the relative position changes and colocalization of green fluorescence and red fluorescence in the cells were detected to determine whether the antibodies were colocalized with lysosomes after endocytosis into the cells.
On to B11, for which the binding result was “binds”. On to B12, for which the binding result was “binds”. Still for that read-out and setting: with B13 the entry was “binds”; with B14, “binds”.

One may read the EC50 as the midpoint of the concentration-response curve. A low value points to a more potent agent. In general, Kd refers to a measure of binding affinity in units of concentration. The low end stands for a tighter complex, the high end for a looser complex.
